Test results: article PMC10150958, “Combination of anti-C1qA08 and anti-mCRP a.a.35-47 antibodies is associated with renal prognosis of patients with lupus nephritis” (Frontiers in Immunology, 2023)

B1: peptide 35-47 of mCRP (peptide)
peptide: VCLHFYTELSSTR
notes: peptide 35-47 derived from mCRP (C-reactive protein); Biotinylated and nonbiotinylated peptides were synthesized; also called a.a.35-47; mCRP a.a.35-47; source: synthetic peptide (GenScript, >95% purity)
B2: peptide 199-206 of mCRP (peptide)
peptide: FTKPQLWP
notes: peptide 199-206 derived from mCRP (C-reactive protein); Biotinylated and nonbiotinylated peptides were synthesized; also called a.a.199-206; source: synthetic peptide (GenScript, >95% purity)
B3: monomeric CRP (mCRP) (natural protein, UniProt P02741 19-224, looked up)
chain: QTDMSRKAFVFPKESDTSYVSLKAPLTKPLKAFTVCLHFYTELSSTRGYSIFSYATKRQDNEILIFWSKDIGYSFTVGGSEILFEVPEVTVAPVHICTSWESASGIVEFWVDGKPRVRKSLKKGYTVGAEASIILGQEQDSFGGNFEGSQSLVGDIGNVNMWDFVLSPDEINTIYLGGPFSPNVLNWRALKYEVQGEVFTKPQLWP
notes: C-reactive protein, monomeric (dissociated, denatured) form; Same protein in all assays: purified mCRP in solution or coated on plates; for SPR with the C1q peptides pentameric CRP was coupled to the chip and turned into mCRP by urea/EDTA, because mCRP precipitated in acetate buffer; also called monomeric C-reactive protein; urea-denatured mCRP; source: urea-denatured mCRP on the microplate; on …
B4: peptide A08 (peptide)
peptide: GRPGRRGRPGLKG
notes: peptide from the collagen like region (CLR) of the C1q-A chain; Biotinylated and nonbiotinylated peptides were synthesized; also called C1qA08; source: synthetic peptide (GenScript, >95% purity)
B5: peptide B78 (peptide)
peptide: PGKVGPKGPMGPK
notes: peptide from the collagen like region (CLR) of the C1q-B chain; Biotinylated and nonbiotinylated peptides were synthesized; source: synthetic peptide (GenScript, >95% purity)

Experiments:
[1] = target: T1, human complement component C1q (human, UniProt P02745 23-245; P02746 28-253; P02747 29-245); assay: SPR; Biacore T200; C1q coupled to a CM5 chip; mCRP or peptides a.a.35-47, a.a.199-206 injected at 30 μl/min in PBS with 0.05% P-20; steady-state curve for a.a.35-47; conditions: both partners purified
T1 construct: complement C1q, A chain, human; complement C1q, B chain, human; complement C1q, C chain, human; also called human C1q; copies: 6 + 6 + 6
T1 sequence (P02745 23-245, chain 1 of 3): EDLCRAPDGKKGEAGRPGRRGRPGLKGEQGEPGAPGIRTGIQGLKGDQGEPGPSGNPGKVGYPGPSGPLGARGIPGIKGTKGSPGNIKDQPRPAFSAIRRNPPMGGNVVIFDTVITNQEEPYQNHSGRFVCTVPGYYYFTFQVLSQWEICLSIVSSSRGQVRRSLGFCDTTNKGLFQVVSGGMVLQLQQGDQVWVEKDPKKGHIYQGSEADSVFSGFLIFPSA
T1 sequence (P02746 28-253, chain 2 of 3): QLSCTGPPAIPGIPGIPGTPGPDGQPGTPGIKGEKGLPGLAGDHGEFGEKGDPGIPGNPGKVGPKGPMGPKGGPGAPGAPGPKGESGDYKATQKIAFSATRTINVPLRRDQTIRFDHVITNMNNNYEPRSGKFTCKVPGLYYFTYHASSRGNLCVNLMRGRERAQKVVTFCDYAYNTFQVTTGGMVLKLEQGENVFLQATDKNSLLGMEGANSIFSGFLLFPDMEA
T1 sequence (P02747 29-245, chain 3 of 3): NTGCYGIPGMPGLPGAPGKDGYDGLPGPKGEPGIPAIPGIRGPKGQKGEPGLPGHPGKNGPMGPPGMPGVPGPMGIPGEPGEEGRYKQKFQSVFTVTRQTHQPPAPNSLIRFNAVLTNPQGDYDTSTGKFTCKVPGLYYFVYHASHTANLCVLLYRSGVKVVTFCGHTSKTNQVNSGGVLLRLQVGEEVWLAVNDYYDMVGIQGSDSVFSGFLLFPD

monomeric CRP (mCRP) = target: B3; assay: SPR; Biacore T200; CRP immobilised on a CM5 chip and denatured to mCRP by 200 s of 8 M urea and 5 mM EDTA; peptides A08, B78, A08-C injected at 30 μl/min in PBS with 0.05% P-20; conditions: both partners purified

Binder	Kd [1] [nM]	Kd (monomeric CRP (mCRP)) [µM]
B1	2940	
B2	890000	
B3	0.0737	
B4		4.7
B5		3500
